# Results: PMC12420816 (Nature Communications, 2025)
# Legend:
# [1] = target: SARS-CoV-2 nsp7-11 polyprotein, tag-free with native (authentic) termini (SARS-CoV-2); assay: native MS
# native MS = target: the molecule itself; assay: native MS
Molecule,stoichiometry N [1],stoichiometry N (native MS)
"SARS-CoV-2 nsp7-11 polyprotein, tag-free with native (authentic) termini (domain or fragment)",2,
"MERS-CoV mature nsp7, released from nsp7-11 by SARS-CoV-2 M^pro (natural protein) SKLTDLKCTSVVLLSVLQQLHLEANSRAWAFCVKCHNDILAATDPSEAFEKFVSLFATLMTFSGNVDLDALASDIFDTPSVLQ",,2
